Patent publication EP4692114A1, “CALCITONIN ANALOGUE, AND DERIVATIVE THEREOF AND USE THEREOF” (Hangzhou Sciwind Biosciences Co., Ltd., priority 2023, dated 2024)
*1 amine or outer side, *2 acyl side, *3 side chain or, on linkers, in order; H or OH if unused. The star is where a group is joined. C20 diacid = O=C(O)CCCCCCCCCCCCCCCCCCC(=O)*; C18 diacid = O=C(O)CCCCCCCCCCCCCCCCC(=O)*; C16 diacid = O=C(O)CCCCCCCCCCCCCCC(=O)*; γGlu = O=C(O)[C@H](CCC(=O)[*:2])N[*:1]

T1: human amylin receptor (AMY3) on CHO-K1/Gal5/AMY3 cells (human, UniProt P30988 25-474; O60896 24-148)
T1 sequence (looked up) 1: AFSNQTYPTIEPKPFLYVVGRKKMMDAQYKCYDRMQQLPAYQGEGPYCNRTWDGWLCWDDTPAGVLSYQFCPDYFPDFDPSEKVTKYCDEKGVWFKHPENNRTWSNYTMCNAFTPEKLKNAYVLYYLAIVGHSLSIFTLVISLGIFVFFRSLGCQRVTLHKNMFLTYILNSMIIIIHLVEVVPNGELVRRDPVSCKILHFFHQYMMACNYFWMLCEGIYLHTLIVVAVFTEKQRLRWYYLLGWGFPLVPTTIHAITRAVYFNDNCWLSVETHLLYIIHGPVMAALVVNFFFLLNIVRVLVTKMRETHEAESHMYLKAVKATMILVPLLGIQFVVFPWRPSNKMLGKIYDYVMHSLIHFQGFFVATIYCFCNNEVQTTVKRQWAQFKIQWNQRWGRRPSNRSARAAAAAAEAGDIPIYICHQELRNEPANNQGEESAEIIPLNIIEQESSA
T1 sequence (looked up) 2: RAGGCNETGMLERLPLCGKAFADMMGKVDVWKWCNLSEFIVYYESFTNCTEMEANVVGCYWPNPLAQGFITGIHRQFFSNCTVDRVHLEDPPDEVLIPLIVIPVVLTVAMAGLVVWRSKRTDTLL

B1: calcitonin derivative M23 (peptide)
peptide: {C18 diacid}-DASQLSTAVLGRLSQELHRLQDYPRTDVGSGSP-NH2
SMILES: CC(C)C[C@H](NC(=O)[C@H](CCCNC(=N)N)NC(=O)CNC(=O)[C@H](CC(C)C)NC(=O)[C@@H](NC(=O)[C@H](C)NC(=O)[C@@H](NC(=O)[C@H](CO)NC(=O)[C@H](CC(C)C)NC(=O)[C@H](CCC(N)=O)NC(=O)[C@H](CO)NC(=O)[C@H](C)NC(=O)[C@H](CC(=O)O)NC(=O)CCCCCCCCCCCCCCCCC(=O)O)[C@@H](C)O)C(C)C)C(=O)N[C@@H](CO)C(=O)N[C@@H](CCC(N)=O)C(=O)N[C@@H](CCC(=O)O)C(=O)N[C@@H](CC(C)C)C(=O)N[C@@H](Cc1c[nH]cn1)C(=O)N[C@@H](CCCNC(=N)N)C(=O)N[C@@H](CC(C)C)C(=O)N[C@@H](CCC(N)=O)C(=O)N[C@@H](CC(=O)O)C(=O)N[C@@H](Cc1ccc(O)cc1)C(=O)N1CCC[C@H]1C(=O)N[C@@H](CCCNC(=N)N)C(=O)N[C@H](C(=O)N[C@@H](CC(=O)O)C(=O)N[C@H](C(=O)NCC(=O)N[C@@H](CO)C(=O)NCC(=O)N[C@@H](CO)C(=O)N1CCC[C@H]1C(N)=O)C(C)C)[C@@H](C)O
B2: calcitonin derivative M40 (peptide)
peptide: {C16 diacid-γGlu}-ASQLSTAVLGRLSDELHRLQDYPRTDVGSGSP-NH2
SMILES: CC(C)C[C@H](NC(=O)[C@H](CCCNC(=N)N)NC(=O)CNC(=O)[C@H](CC(C)C)NC(=O)[C@@H](NC(=O)[C@H](C)NC(=O)[C@@H](NC(=O)[C@H](CO)NC(=O)[C@H](CC(C)C)NC(=O)[C@H](CCC(N)=O)NC(=O)[C@H](CO)NC(=O)[C@H](C)NC(=O)CC[C@H](NC(=O)CCCCCCCCCCCCCCC(=O)O)C(=O)O)[C@@H](C)O)C(C)C)C(=O)N[C@@H](CO)C(=O)N[C@@H](CC(=O)O)C(=O)N[C@@H](CCC(=O)O)C(=O)N[C@@H](CC(C)C)C(=O)N[C@@H](Cc1c[nH]cn1)C(=O)N[C@@H](CCCNC(=N)N)C(=O)N[C@@H](CC(C)C)C(=O)N[C@@H](CCC(N)=O)C(=O)N[C@@H](CC(=O)O)C(=O)N[C@@H](Cc1ccc(O)cc1)C(=O)N1CCC[C@H]1C(=O)N[C@@H](CCCNC(=N)N)C(=O)N[C@H](C(=O)N[C@@H](CC(=O)O)C(=O)N[C@H](C(=O)NCC(=O)N[C@@H](CO)C(=O)NCC(=O)N[C@@H](CO)C(=O)N1CCC[C@H]1C(N)=O)C(C)C)[C@@H](C)O
B3: calcitonin derivative M19 (peptide)
peptide: {C20 diacid-γGlu}-ASQLSTAVLGRLSQELHRLQDYPRTDVGAGSP-NH2
SMILES: CC(C)C[C@H](NC(=O)[C@H](CCCNC(=N)N)NC(=O)CNC(=O)[C@H](CC(C)C)NC(=O)[C@@H](NC(=O)[C@H](C)NC(=O)[C@@H](NC(=O)[C@H](CO)NC(=O)[C@H](CC(C)C)NC(=O)[C@H](CCC(N)=O)NC(=O)[C@H](CO)NC(=O)[C@H](C)NC(=O)CC[C@H](NC(=O)CCCCCCCCCCCCCCCCCCC(=O)O)C(=O)O)[C@@H](C)O)C(C)C)C(=O)N[C@@H](CO)C(=O)N[C@@H](CCC(N)=O)C(=O)N[C@@H](CCC(=O)O)C(=O)N[C@@H](CC(C)C)C(=O)N[C@@H](Cc1c[nH]cn1)C(=O)N[C@@H](CCCNC(=N)N)C(=O)N[C@@H](CC(C)C)C(=O)N[C@@H](CCC(N)=O)C(=O)N[C@@H](CC(=O)O)C(=O)N[C@@H](Cc1ccc(O)cc1)C(=O)N1CCC[C@H]1C(=O)N[C@@H](CCCNC(=N)N)C(=O)N[C@H](C(=O)N[C@@H](CC(=O)O)C(=O)N[C@H](C(=O)NCC(=O)N[C@@H](C)C(=O)NCC(=O)N[C@@H](CO)C(=O)N1CCC[C@H]1C(N)=O)C(C)C)[C@@H](C)O

Biological target: T1, human amylin receptor (AMY3) on …
Experiment: cell-based or functional assay

Row | Binder | EC50/nM, CRE-luciferase in amylin receptor/CRE-luc CHO cells
1 | B1 | 0.01 nM
2 | B2 | 0.002 nM
3 | B3 | 0.016 nM
